For three substances, Kd, stoichiometry N and crosslinking efficiency results are on record in PMC10031210.

The target in assay [1] is unfolded transmembrane β-barrel of outer membrane protein A (uOmpA171) (E. coli) (UniProt P0A910). The experiment in a line: AUC.
Target sequence in this assay (P0A910 22-192): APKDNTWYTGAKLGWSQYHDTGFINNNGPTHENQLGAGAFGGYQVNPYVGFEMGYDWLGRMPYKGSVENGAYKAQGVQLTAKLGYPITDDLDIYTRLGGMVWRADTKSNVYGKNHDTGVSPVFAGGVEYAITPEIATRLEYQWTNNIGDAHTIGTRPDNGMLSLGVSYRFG
The target is the same in assay [2]. The experiment in a line: AUC. This is another data set of the same source.
Target sequence in this assay (P0A910 22-192): as above
For assay [3], the target named is FkpA (full-length, dimeric form) (E. coli) (UniProt P45523). Description: AUC.
Assay [4] deals with unfolded transmembrane β-barrel of outer membrane protein A (uOmpA171) (E. coli) (UniProt P0A910). The experiment in a line: AUC. This is another data set of the same source.
Target sequence in this assay (P0A910 22-192): as above
For assay [5] the target is unchanged. The experiment in a line: AUC. The source holds these as a separate data set.
Target sequence in this assay (P0A910 22-192): as above
The target is the same in assay [6]. Description: AUC. This is another data set of the same source.
Target sequence in this assay (P0A910 22-192): as above
Assay [7] has the same target. The experiment in a line: cross-linking.
For assay [8], the target named is unfolded β-barrel assembly machine A (uBamA) (UniProt P0A940). The experiment in a line: cross-linking.
For assay [9], the target named is unfolded outer membrane protein X (uOmpX) (E. coli) (UniProt P0A917). Description: cross-linking.
For assay [10], the target named is N-FkpA (N-terminal domain of FkpA) (E. coli) (UniProt P45523). Description: AUC.

Like-named read-outs stand apart in the source and are kept apart here.

As to “FkpA (full-length, dimeric form) (from UniProt P45523 26-270) (natural protein)”, the Kd in assay [1] stood at 1.1 µM; in [2], 0.7 µM; in [4] it was 2.9 µM; in assay [5], 0.4 µM; in [6], 0.008 µM. In [3], the stoichiometry N was 2.
In the case of “FkpA pAzF variant Y225pAzF (from UniProt P45523 26-270) (natural protein)”, the crosslinking efficiency was 83.2% in assay [7], 81.8% in assay [8] and 81% in [9].
Turning to “N-FkpA (N-terminal domain of FkpA) (from UniProt P45523 26-270) (domain or fragment)”, the dissociation constant (Kd) in assay [1] is 44 µM. Moreover, in assay [10], the stoichiometry N was determined as 2.
